For 3 variants, screen value results are on record in publication PMC8570500 (2021).

To fix the notation:
B1: HA-Vpx HIV-2.Gh1 WT [HIV-2 (Ghana-1 strain)] / DCAF1, endogenous (DDB1- and Cul4A-associated factor 1) [human (endogenous in HeLa)] (parent complex)
chain 1: MTDPRERVPPGNSGEETIGEAFEWLDRTIEALNREAVNHLPRELIFQVWQRSWRYWHDDQGMSPSYTKYRYLCLMQKAVFIHFKRGCTCLGGGHGPGGWRSGPPPPPPPGLV
chain 2: not shown

The variants in one experiment derive from B1. Briefly: co-immunoprecipitation (anti-Flag IP of TASOR-Flag, western blot band quantification); Ternary read-out: endogenous DCAF1 recovered with TASOR-Flag (m24) in the presence of this HA-Vpx mutant, HeLa cells; lane 11; no value printed for the WT lane.
chain 1 V48A: the screen value stood at 0.5.

The variants in another experiment derive from B1. Briefly: co-immunoprecipitation (anti-Flag IP of TASOR-Flag, western blot band quantification); Ternary read-out: endogenous DCAF1 recovered with TASOR-Flag (m24) in the presence of this HA-Vpx mutant, HeLa cells; lane 12; no value printed for the WT lane. (In western blotting, separated proteins are transferred to a membrane and probed.)
With chain 1 Q47A, chain 1 V48A, the screen value came to 0.2.

A further experiment covers variants of B1. Briefly: co-immunoprecipitation (anti-Flag IP of TASOR-Flag, western blot band quantification); Ternary read-out: endogenous DCAF1 recovered with TASOR-Flag (m24) in the presence of this HA-Vpx mutant, HeLa cells; lane 10; no value printed for the WT lane.
As for chain 1 Q47A, the screen value amounted to 1.
